In patent publication US20240018226A1 (PROTHENA BIOSCIENCES, published 2024):

What was measured:
[1] = molecular target: T1, 4R2N-tau (Swiss-Prot P10636-8) (human, UniProt P10636 2-758); assay: surface plasmon resonance
T1 construct: The construct used in SPR is not described; also called 441 amino acid tau protein

[2] = molecular target: T2, 3R2N-tau (Swiss-Prot P10636-5) (human, UniProt P10636 2-758); assay: surface plasmon resonance
T2 construct: The construct used in SPR is not described
T2 sequence (P10636 other isoform, or with tags, fused parts or gaps limits assumed): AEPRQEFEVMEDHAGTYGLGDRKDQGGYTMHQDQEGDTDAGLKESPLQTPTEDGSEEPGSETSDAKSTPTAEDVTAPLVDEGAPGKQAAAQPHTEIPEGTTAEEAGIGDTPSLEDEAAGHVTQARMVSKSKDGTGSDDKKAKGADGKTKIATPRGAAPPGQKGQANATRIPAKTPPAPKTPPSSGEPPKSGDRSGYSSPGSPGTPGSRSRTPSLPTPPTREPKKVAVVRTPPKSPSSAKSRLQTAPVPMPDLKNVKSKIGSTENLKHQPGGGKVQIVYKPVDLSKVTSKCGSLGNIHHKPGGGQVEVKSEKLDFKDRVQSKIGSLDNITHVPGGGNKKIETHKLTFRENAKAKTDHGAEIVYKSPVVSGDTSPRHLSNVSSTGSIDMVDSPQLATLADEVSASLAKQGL

T1 sequence (P10636 other isoform, or with tags, fused parts or gaps limits assumed): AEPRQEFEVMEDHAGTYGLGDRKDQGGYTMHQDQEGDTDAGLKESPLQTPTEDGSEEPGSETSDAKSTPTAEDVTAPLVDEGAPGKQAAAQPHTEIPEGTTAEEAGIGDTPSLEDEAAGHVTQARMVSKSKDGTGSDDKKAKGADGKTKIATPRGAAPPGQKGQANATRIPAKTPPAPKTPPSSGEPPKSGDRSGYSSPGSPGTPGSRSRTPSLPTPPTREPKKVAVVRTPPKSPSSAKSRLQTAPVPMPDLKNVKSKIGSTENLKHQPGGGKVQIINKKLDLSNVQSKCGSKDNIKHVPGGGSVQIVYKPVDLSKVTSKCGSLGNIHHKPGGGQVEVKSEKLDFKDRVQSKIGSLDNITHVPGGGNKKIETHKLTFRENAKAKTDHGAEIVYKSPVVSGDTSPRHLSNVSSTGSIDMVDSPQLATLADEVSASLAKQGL

Kd [1]: 0.206 nM | Kd [2]: 0.154 nM
B1: hu3D6VHv1bA11/L2-DIM4 (antibody, human IgG1, kappa, V domains shown)
VH: EVQLVQSGAEVVKPGATVKISCKASGFNIKDYYLHWVRQRPGQGLEWIGWIDPENGDTVYDPKFQGRATITADTSTDTAYLQLGSLTSEDTAVYFCSTLDFWGQGTLVTVSS
VL: DVVMTQSPLSLPVTLGQPASISCKSSQSLLDSDGKTYLNWLQQRPGQSPRRLIYLVGKRDSGVPDRFSGSGSGTDFTLKISRVEAEDVGVYYCWQGTHFPYTFGGGTKLEIKR
notes: also called PRX005; humanized 3D6 variant
